In patent US10105442B2, “Treatment of diabetes type 1 using GLP-1 and anti-IL-21” (Novo Nordisk A/S, priority 2014, dated 2018):

Biological target: T1, mIL-21 (Mus musculus, UniProt Q9ES17)
T1 construct: purchased
Assay: Inhibition of IL-21-driven B cell proliferation (Assay IV)
Format: cell-based
Details: mouse B cells stimulated with anti-IgM, anti-CD40 and rmIL-21, 72 h, 3H-thymidine incorporation
Method: Assay (IV): Inhibition of IL-21-Driven B Cell Proliferation.
As a functionality test, anti-mIL-21 is tested for its ability to neutralize mIL-21-driven B cell proliferation. Equivalent assays may be performed for testing of anti-hIL-21 antibodies, such as Example 10 of WO2013/164021 that utilizes PBMC's isolated from healthy human volunteers. Further information on ability to inhibit B-cell maturation may be obtained as described in Example 6 and 12 of WO2012/098113.
Mouse B cells are purified from spleens harvested from 6-8 weeks old wild-type C57BL/6 mice. Single cell splenocytes are prepared by forcing the organ through a 70 μm cell strainer into PBS. B cells were purified by anti-B220 positive selection by magnetic beads, using magnetic beads and an AutoMACS cell separator (Miltenyi Biotec) according to manufacturer's protocol.
Cells are stimulated in vitro with: a) soluble anti-IgM (1 μg/mL), b) soluble anti-CD40 (1 μg/mL) and c) mIL-21 (25, 50, 100 ng/mL). 10^5 purified B cells were added per well in a 96-well-plate and stimulated for 72 h at 37° C. with soluble IgM (1 μg/mL), soluble anti-CD40 IgM (1 μg/mL) and rmIL-21 (100 ng/mL) in the presence of an anti-IL-21 antibody or an isotype control antibody. For the last 18 h of incubation 3H-thymidine is added to each well and thymidine-incorporation (proliferation) was measured on a Top Counter liquid scintilator (Perkin Elmer)

B1: Anti-IL-21: Mouse surrogate anti-IL-21 antibody, mIgG1/kappa isotype, VL SEQ ID NO:26 and VH SEQ ID NO:27, raised against recombinant mouse IL-21 (antibody, V domains shown)
VH: MNFGPSLIFLVLILKGVQCEVQLVESGGGLVKPGGSLKLSCAASGFTFNRYSMSWVRQSPEKRLEWVAEISVGGSYTQYVDIVTGRFTISRDNAKNTLYLEMSSLRSEDTAMYYCARLYYSGSGDSYYYAMDYWGQGTSVTVSS
VL: MDFQVQIFSFLLISASVILSRGQTVLIQSPAIMSASPGEKVTMTCSASSSVSYMHWYQQKSGTSPKRWIYDTSKLASGVPARFSGSGSGTSYSLTISSMEAEDAATYYCQQWNSNPPTFGGGTKLEMK
- Inhibition of mIL-21-driven B-cell proliferation (in words): capable of inhibiting B-cell proliferation in a concentration dependent manner
